This sample holds only a part of the variants without activity.
Assays:
[1] = tested on: biotinyl-Leu-oxazolone; assay: self-aminoacylation, catalytic enhancement (BLO) (fold over background); higher = more active; k-Seq, kA / k0A0; sequences stand for … in GGGAAUGGAUCCACAUCUACGAAUUC…UUCACUGCAGACUUGACGAAGCUG
In short: (§1)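 Working in 50 μL HEPES/NaCl/KCl/MgCl2/CaCl2 buffer with 5% acetonitrile at pH 6.9–7.0, mutagenized RNA pools (0.43 μM; 21-nt variable region) were reacted with 2–1250 μM of each biotinyl-aminoacyl-oxazolone for 90 minutes at room temperature. Streptavidin capture followed, with quantification by triplicate qPCR and Illumina sequencing. Catalytic enhancement is reported as median kA over the uncatalyzed rate, the low-activity peak of a bimodal Gaussian fit to the data.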

[2] = tested on: biotinyl-Trp-oxazolone; assay: self-aminoacylation, catalytic enhancement (BWO) (fold over background); higher = more active; k-Seq, kA / k0A0; sequences stand for … in GGGAAUGGAUCCACAUCUACGAAUUC…UUCACUGCAGACUUGACGAAGCUG
In short: as §1

[3] = tested on: biotinyl-Val-oxazolone; assay: self-aminoacylation, catalytic enhancement (BVO) (fold over background); higher = more active; k-Seq, kA / k0A0; sequences stand for … in GGGAAUGGAUCCACAUCUACGAAUUC…UUCACUGCAGACUUGACGAAGCUG
In short: as §1

[4] = tested on: biotinyl-Met-oxazolone; assay: self-aminoacylation, catalytic enhancement (BMO) (fold over background); higher = more active; k-Seq, kA / k0A0; sequences stand for … in GGGAAUGGAUCCACAUCUACGAAUUC…UUCACUGCAGACUUGACGAAGCUG
In short: as §1

[5] = tested on: biotinyl-Phe-oxazolone; assay: self-aminoacylation, catalytic enhancement (BFO) (fold over background); higher = more active; k-Seq, kA / k0A0; sequences stand for … in GGGAAUGGAUCCACAUCUACGAAUUC…UUCACUGCAGACUUGACGAAGCUG
In short: as §1

[6] = tested on: biotinyl-Ile-oxazolone; assay: self-aminoacylation, catalytic enhancement (BIO) (fold over background); higher = more active; k-Seq, kA / k0A0; sequences stand for … in GGGAAUGGAUCCACAUCUACGAAUUC…UUCACUGCAGACUUGACGAAGCUG
In short: as §1

## CUCCUUCAAACAAGCGGUCUG [Fam1A.1 aminoacylation ribozyme variant]
[1]
  self-aminoacylation: 0.774
[2]
  self-aminoacylation: 1.25
[3]
  self-aminoacylation: 0.83
[4]
  self-aminoacylation: 0.734
[5]
  self-aminoacylation: 0.811
[6]
  self-aminoacylation: 0.98

## CUACUUCAAACACUCGUUCUG [Fam1A.1 aminoacylation ribozyme variant]
[1]
  self-aminoacylation: 0.492
[2]
  self-aminoacylation: 0.444
[3]
  self-aminoacylation: 0.635
[4]
  self-aminoacylation: 0.499
[5]
  self-aminoacylation: 0.429
[6]
  self-aminoacylation: 0.595

## ACACACUUCAAACAAUCGGUC [Fam1B.1 aminoacylation ribozyme variant]
[1]
  self-aminoacylation: 2.39
[2]
  self-aminoacylation: 40.6
[3]
  self-aminoacylation: 1.79
[4]
  self-aminoacylation: 1.38
[5]
  self-aminoacylation: 65.1
[6]
  self-aminoacylation: 1.73

## AUUACCCUGGUCAACGAGUGG [Fam2.1 aminoacylation ribozyme variant]
[1]
  self-aminoacylation: 1.38
[2]
  self-aminoacylation: 1.78
[3]
  self-aminoacylation: 1.09
[4]
  self-aminoacylation: 1.49
[5]
  self-aminoacylation: 2.19
[6]
  self-aminoacylation: 1.04

## AUUCCCCUGGUCAUAGAGUGA [Fam2.1 aminoacylation ribozyme variant]
[1]
  self-aminoacylation: 10.1
[2]
  self-aminoacylation: 13.1
[3]
  self-aminoacylation: 5.89
[4]
  self-aminoacylation: 10
[5]
  self-aminoacylation: 70.9
[6]
  self-aminoacylation: 5.4

## AUUCACCUUGGCCAUCGGGUG [Fam2.2 aminoacylation ribozyme variant]
[1]
  self-aminoacylation: 4.98
[2]
  self-aminoacylation: 4.95
[3]
  self-aminoacylation: 3.88
[4]
  self-aminoacylation: 4.02
[5]
  self-aminoacylation: 31.6
[6]
  self-aminoacylation: 2.9

## CUUCACCCAGGUCAUCGGGUG [Fam2.2 aminoacylation ribozyme variant]
[1]
  self-aminoacylation: 3.23
[2]
  self-aminoacylation: 3.73
[3]
  self-aminoacylation: 3.34
[4]
  self-aminoacylation: 4.41
[5]
  self-aminoacylation: 25.2
[6]
  self-aminoacylation: 2.29

## CUGCUUCAAACAAUUGGUCUG [Fam1A.1 aminoacylation ribozyme variant]
[1]
  self-aminoacylation: 0.726
[2]
  self-aminoacylation: 1.19
[3]
  self-aminoacylation: 0.657
[4]
  self-aminoacylation: 0.715
[5]
  self-aminoacylation: 1.54
[6]
  self-aminoacylation: 0.789

## AAGUUUGCUAAUAGUCGAAUG [Fam3.1 aminoacylation ribozyme variant]
[1]
  self-aminoacylation: 0.88
[2]
  self-aminoacylation: 1.17
[3]
  self-aminoacylation: 0.903
[4]
  self-aminoacylation: 1.17
[5]
  self-aminoacylation: 1.48
[6]
  self-aminoacylation: 1.09

## CUACUUCAAAUAAUUGGUCUG [Fam1A.1 aminoacylation ribozyme variant]
[1]
  self-aminoacylation: 0.869
[2]
  self-aminoacylation: 0.637
[3]
  self-aminoacylation: 0.802
[4]
  self-aminoacylation: 0.953
[5]
  self-aminoacylation: 1.19
[6]
  self-aminoacylation: 0.844

## AAGUUUGCUAAUAGCCGCGAG [Fam3.1 aminoacylation ribozyme variant]
[1]
  self-aminoacylation: 2.04
[2]
  self-aminoacylation: 1.01
[3]
  self-aminoacylation: 1.63
[4]
  self-aminoacylation: 0.916
[5]
  self-aminoacylation: 1.6
[6]
  self-aminoacylation: 1.05

## CUACUUCAAACAAUCGGGGUG [Fam1A.1 aminoacylation ribozyme variant]
[1]
  self-aminoacylation: 4.32
[2]
  self-aminoacylation: 3.36
[3]
  self-aminoacylation: 2.35
[4]
  self-aminoacylation: 3.77
[5]
  self-aminoacylation: 2.9
[6]
  self-aminoacylation: 3.04

## CCCCACUUCAAGCAAUCGGUG [Fam1B.1 aminoacylation ribozyme variant]
[1]
  self-aminoacylation: 13.9
[2]
  self-aminoacylation: 12.5
[3]
  self-aminoacylation: 7.84
[4]
  self-aminoacylation: 11
[5]
  self-aminoacylation: 75.4
[6]
  self-aminoacylation: 6.57

## CUACUUCAAACAAUCGCUCUU [Fam1A.1 aminoacylation ribozyme variant]
[1]
  self-aminoacylation: 0.539
[2]
  self-aminoacylation: 0.632
[3]
  self-aminoacylation: 0.856
[4]
  self-aminoacylation: 0.772
[5]
  self-aminoacylation: 0.851
[6]
  self-aminoacylation: 0.938

## CCACACAACAAGCAAUCGGUC [Fam1B.1 aminoacylation ribozyme variant]
[1]
  self-aminoacylation: 0.863
[2]
  self-aminoacylation: 0.693
[3]
  self-aminoacylation: 0.899
[4]
  self-aminoacylation: 0.781
[5]
  self-aminoacylation: 1.15
[6]
  self-aminoacylation: 0.894

## CCACACUGCAUGCAAUCGGUC [Fam1B.1 aminoacylation ribozyme variant]
[1]
  self-aminoacylation: 0.507
[2]
  self-aminoacylation: 0.659
[3]
  self-aminoacylation: 0.857
[4]
  self-aminoacylation: 0.803
[5]
  self-aminoacylation: 0.714
[6]
  self-aminoacylation: 0.875

## AUUCACCUAGGUCAUCGGGUG [Fam2.2 aminoacylation ribozyme variant]
[1]
  self-aminoacylation: 83.7
[2]
  self-aminoacylation: 45.6
[3]
  self-aminoacylation: 28.4
[4]
  self-aminoacylation: 60.1
[5]
  self-aminoacylation: 486
[6]
  self-aminoacylation: 33.2

## CUCCUUCAAACAUUCGGUCUG [Fam1A.1 aminoacylation ribozyme variant]
[1]
  self-aminoacylation: 1.05
[2]
  self-aminoacylation: 1.66
[3]
  self-aminoacylation: 1.32
[4]
  self-aminoacylation: 1.31
[5]
  self-aminoacylation: 3.15
[6]
  self-aminoacylation: 1.24

## AAGUUUGUUAAUACUCGCAAG [Fam3.1 aminoacylation ribozyme variant]
[1]
  self-aminoacylation: 0.76
[2]
  self-aminoacylation: 0.7
[3]
  self-aminoacylation: 0.81
[4]
  self-aminoacylation: 0.692
[5]
  self-aminoacylation: 1.07
[6]
  self-aminoacylation: 0.893

## AUCCACCUAGGUCAUCAGGUG [Fam2.2 aminoacylation ribozyme variant]
[1]
  self-aminoacylation: 1.82
[2]
  self-aminoacylation: 2.64
[3]
  self-aminoacylation: 1.74
[4]
  self-aminoacylation: 1.74
[5]
  self-aminoacylation: 4.11
[6]
  self-aminoacylation: 1.51

## GUUACCCUGGUUAUCGAGUGA [Fam2.1 aminoacylation ribozyme variant]
[1]
  self-aminoacylation: 11.8
[2]
  self-aminoacylation: 13
[3]
  self-aminoacylation: 5.74
[4]
  self-aminoacylation: 11.6
[5]
  self-aminoacylation: 57.6
[6]
  self-aminoacylation: 5.48

## CUACUACAAACAAUCUGUCUG [Fam1A.1 aminoacylation ribozyme variant]
[1]
  self-aminoacylation: 0.647
[2]
  self-aminoacylation: 0.45
[3]
  self-aminoacylation: 0.835
[4]
  self-aminoacylation: 0.624
[5]
  self-aminoacylation: 0.733
[6]
  self-aminoacylation: 0.787

## CUACUUCAAACCAUCGGUUUG [Fam1A.1 aminoacylation ribozyme variant]
[1]
  self-aminoacylation: 0.895
[2]
  self-aminoacylation: 0.624
[3]
  self-aminoacylation: 1.03
[4]
  self-aminoacylation: 0.74
[5]
  self-aminoacylation: 0.597
[6]
  self-aminoacylation: 0.815

## UUCCUUCAAACAAUCGGUCUG [Fam1A.1 aminoacylation ribozyme variant]
[1]
  self-aminoacylation: 0.937
[2]
  self-aminoacylation: 4.06
[3]
  self-aminoacylation: 0.647
[4]
  self-aminoacylation: 0.806
[5]
  self-aminoacylation: 5.13
[6]
  self-aminoacylation: 0.784

## AAGUGGGCUAAUAGUCGCAAG [Fam3.1 aminoacylation ribozyme variant]
[1]
  self-aminoacylation: 1.44
[2]
  self-aminoacylation: 1.73
[3]
  self-aminoacylation: 1.32
[4]
  self-aminoacylation: 1.56
[5]
  self-aminoacylation: 2.27
[6]
  self-aminoacylation: 1.6

## AUUACCCUGAACAUCGAGUGA [Fam2.1 aminoacylation ribozyme variant]
[1]
  self-aminoacylation: 6.97
[2]
  self-aminoacylation: 8.05
[3]
  self-aminoacylation: 3.35
[4]
  self-aminoacylation: 6.65
[5]
  self-aminoacylation: 24.2
[6]
  self-aminoacylation: 3.4

— the supplement of paper PMC9233669
